Source: publication PMC3259199

Assays:
[1] = biological target: Norwalk virus protease (NVpro) (Norwalk virus (norovirus GI/1)) (UniProt Q83883)
[2] = biological target: MD145 virus protease (MD145pro) (MD145 virus (norovirus GII/4))

Chain of UniProt Q83883 (Q83883 1101-1281): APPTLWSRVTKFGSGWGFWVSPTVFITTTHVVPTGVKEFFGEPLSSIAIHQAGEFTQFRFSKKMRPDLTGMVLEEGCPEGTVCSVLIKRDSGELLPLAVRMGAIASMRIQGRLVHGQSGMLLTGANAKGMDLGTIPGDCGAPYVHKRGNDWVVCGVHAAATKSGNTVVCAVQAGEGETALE

| Binder | Km of cleavage of the fluorogenic substrate (FRET protease assay) [1] [µM] | Km of cleavage of the fluorogenic substrate (FRET protease assay) [2] [µM] |
| --- | --- | --- |
| edans-DFHLQGP-dabcyl [edans-DFHLQGP-dabcyl] | 272 | 160 |
| edans-EPDFHLQGPEDLAK-dabcyl [edans-…-dabcyl] | 790 | 545 |
